# Laboratory results published in the supplement of paper PMC9170038.
# System: MS2 coat protein
# Experiment: apparent KD of MS2 coat protein; higher = weaker reporter binding
# Conditions: Eterna round: R107
# Method: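 RNA-MaP round R107: designed RNA switches with theophylline, tryptophan, arginine or FMN aptamers are transcribed on-chip within common flanks. They are titrated with SNAP-549-labelled MS2 coat protein in RNA-MaP buffer (100 mM Tris pH 7.5, 80 mM KCl, 4 mM MgCl2), without ligand or with the indicated ligand. Median apparent KD per design.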
# [1] = input ligand: theophylline 20 uM
# [2] = input ligand: theophylline 2 mM
# [3] = input ligand: tryptophan 2.4 mM
sequence,measurement,setting,value
AAUUAUCAGUCGGCCGCCACUGACACAUGAGGAUCACCCAUGUAACAUGGGUAAAAUUAACUGAACAGGACCGGGACAAAGGCUA [JR_ExcTryptoB_Sub008],apparent KD of MS2 coat protein,input ligand: arginine 13.2 mM,179 nM
same,apparent KD of MS2 coat protein,[1],671 nM
same,apparent KD of MS2 coat protein,[2],740 nM
AAUUCCUAACAUGAGGAUCACCCAUGUGAAGGAGCGCCGAAUAAGGCAGGUAGGUCGCACAUGGAACCGCUACGAAAGUAGCAAA,apparent KD of MS2 coat protein,input ligand: arginine 13.2 mM,22.5 nM
same,apparent KD of MS2 coat protein,input ligand: none,23.5 nM
same,apparent KD of MS2 coat protein,[1],23.6 nM
same,apparent KD of MS2 coat protein,[2],21.6 nM
same,apparent KD of MS2 coat protein,[3],17.8 nM
ACACGGAAUGAUGGAUCACCUCGUUAAUAACGAGGACCGGUACGGCCGCCACUCGAAAACCGUGACCUGUACGAAAAGUGCAGGA [TrypAS 15 #SwitchBubble #HomemadeMS2 #StaticStrem #MS2Early],apparent KD of MS2 coat protein,input ligand: arginine 13.2 mM,27.3 nM
same,apparent KD of MS2 coat protein,input ligand: none,33.6 nM
same,apparent KD of MS2 coat protein,[1],314 nM
same,apparent KD of MS2 coat protein,[2],488 nM
same,apparent KD of MS2 coat protein,[3],76.1 nM
ACAUACAUGAGGAUCACCCAUGUCCAUGUUCGAGGACCGGUACGGCCGCCACUCGCGCGACAGCAUGAGGAACUUGAGGAUCACA [Exclusion Tryptophan A],apparent KD of MS2 coat protein,input ligand: arginine 13.2 mM,39.5 nM
same,apparent KD of MS2 coat protein,input ligand: none,63.8 nM
same,apparent KD of MS2 coat protein,[1],104 nM
same,apparent KD of MS2 coat protein,[2],82.2 nM
same,apparent KD of MS2 coat protein,[3],48.8 nM
ACAUGAAGAACAGCGGUGGGCGCGCUCGAUACCAGUAUUUUAAAUUACCCUUGGCAGCGACAUGAGGAUCACCCAUGUGAGAUGA [XTheo A #5],apparent KD of MS2 coat protein,input ligand: arginine 13.2 mM,22.5 nM
same,apparent KD of MS2 coat protein,input ligand: none,18.1 nM
same,apparent KD of MS2 coat protein,[1],24.8 nM
same,apparent KD of MS2 coat protein,[2],33.8 nM
same,apparent KD of MS2 coat protein,[3],18 nM
ACAUGAGGAUCACCCAUGUAAAUAACGGAAGGAGCGUGCAAAAGCACAGGUAGGUCGCCGAUAUAAAUAUUGGGUAAUAUAUUAU [ExyArgA#1],apparent KD of MS2 coat protein,input ligand: arginine 13.2 mM,25 nM
same,apparent KD of MS2 coat protein,input ligand: none,34.2 nM
same,apparent KD of MS2 coat protein,[1],41.5 nM
same,apparent KD of MS2 coat protein,[2],28.2 nM
same,apparent KD of MS2 coat protein,[3],28 nM
ACAUGAGGAUCACCCAUGUAAUAAUCAGAAGGAGCGUGGAAUAACACAGGUAGGUCGCUGAUGUUUGGUUAAAUGUAAUCGUGUA [JR_SSArginiA_Sub001],apparent KD of MS2 coat protein,input ligand: arginine 13.2 mM,13 nM
same,apparent KD of MS2 coat protein,input ligand: none,13.5 nM
same,apparent KD of MS2 coat protein,[1],18.1 nM
same,apparent KD of MS2 coat protein,[2],17.6 nM
same,apparent KD of MS2 coat protein,[3],17.1 nM
ACAUGAGGAUCACCCAUGUAAUACCGGGAAGGAGCGCGUAAGGACGCAGGUAGGUCGCUCGGCGUCCGGCCGCAAGGCCGGACGA [#1 Same State - Arginine A Attempt #12 (HarryS)],apparent KD of MS2 coat protein,input ligand: arginine 13.2 mM,21 nM
same,apparent KD of MS2 coat protein,input ligand: none,14.4 nM
same,apparent KD of MS2 coat protein,[1],24.3 nM
same,apparent KD of MS2 coat protein,[2],10.7 nM
same,apparent KD of MS2 coat protein,[3],14.7 nM
ACAUGAGGAUCACCCAUGUAUCAACGGGAAGGAGCGCCAAACAAGGCAGGUAGGUCGCCCACAUGAGGAUCACCCAUGUGUUGGU [Exclusion Arginine A GF 29],apparent KD of MS2 coat protein,input ligand: arginine 13.2 mM,20.6 nM
same,apparent KD of MS2 coat protein,input ligand: none,21.4 nM
same,apparent KD of MS2 coat protein,[1],25.8 nM
same,apparent KD of MS2 coat protein,[2],24.9 nM
same,apparent KD of MS2 coat protein,[3],21.1 nM
ACAUGAGGAUCACCCAUGUAUGACUAUCCUCGAGGACCGGUACGGCCGCCACUCGAACGAGUGGCUCGCGAGUGCGCACUCGCGA [5' end],apparent KD of MS2 coat protein,input ligand: arginine 13.2 mM,11.7 nM
same,apparent KD of MS2 coat protein,input ligand: none,13.3 nM
same,apparent KD of MS2 coat protein,[1],16.6 nM
same,apparent KD of MS2 coat protein,[2],11.3 nM
same,apparent KD of MS2 coat protein,[3],10.3 nM
ACAUGAGGAUCACCCAUGUAUGACUAUCCUCGAGGACCGGUACGGCCGCCACUCGAAGGAGUGGCUCGCGAGUGCGCACUUGCGA [5' end],apparent KD of MS2 coat protein,input ligand: arginine 13.2 mM,10.9 nM
same,apparent KD of MS2 coat protein,input ligand: none,11.9 nM
same,apparent KD of MS2 coat protein,[1],19.2 nM
same,apparent KD of MS2 coat protein,[2],11.8 nM
same,apparent KD of MS2 coat protein,[3],12.1 nM
ACAUGAGGAUCACCCAUGUAUGAUGUUCCUCGAGGACCGGUACGGCCGCCACUCGAACGAGUGGCGCGCGCGCGCGCGCGCGCGC [aUa],apparent KD of MS2 coat protein,input ligand: arginine 13.2 mM,54.8 nM
same,apparent KD of MS2 coat protein,input ligand: none,16.5 nM
same,apparent KD of MS2 coat protein,[1],35.1 nM
same,apparent KD of MS2 coat protein,[2],22.7 nM
same,apparent KD of MS2 coat protein,[3],16.4 nM
ACAUGAGGAUCACCCAUGUCAAGGCACGAUACCAGCUGAUCCCGUGGCCCUUGGCAGCGUCACGUUUGGUCCCGCGGAUGACACG [zczmullin],apparent KD of MS2 coat protein,input ligand: arginine 13.2 mM,38.4 nM
same,apparent KD of MS2 coat protein,[1],111 nM
same,apparent KD of MS2 coat protein,[3],86.9 nM
ACAUGAGGAUCACCCAUGUCACGGCACGAUACCAGCUGAUGCGGUGGCCCUUGGCAGCGUGACGUUUGGUCCCGCGGAUGACGGG [zzmullin],apparent KD of MS2 coat protein,input ligand: arginine 13.2 mM,36.6 nM
same,apparent KD of MS2 coat protein,[1],74.3 nM
same,apparent KD of MS2 coat protein,[3],53.2 nM
ACAUGAGGAUCACCCAUGUCAGGGCACGAUACCAGCUGAUCCGGUGGCCCUUGGCAGCGUGACGUGUGGUCAUGAGGAUCACCCG [wsmullin],apparent KD of MS2 coat protein,input ligand: arginine 13.2 mM,283 nM
same,apparent KD of MS2 coat protein,input ligand: none,520 nM
same,apparent KD of MS2 coat protein,[1],642 nM
same,apparent KD of MS2 coat protein,[2],638 nM
same,apparent KD of MS2 coat protein,[3],464 nM
ACAUGAGGAUCACCCAUGUCAUGAGGUUCACGAGGACCGGUACGGCCGCCACUCGACAUGAGGGUCACCCAUGUGAGGAACACCC [mamullun],apparent KD of MS2 coat protein,input ligand: arginine 13.2 mM,117 nM
same,apparent KD of MS2 coat protein,[1],278 nM
same,apparent KD of MS2 coat protein,[2],579 nM
